{"source": "IntAct's records for PubMed 26894577", "target": "2aba_human PPP2R2A (UniProt P63151)", "sequence (P63151 whole entry)": "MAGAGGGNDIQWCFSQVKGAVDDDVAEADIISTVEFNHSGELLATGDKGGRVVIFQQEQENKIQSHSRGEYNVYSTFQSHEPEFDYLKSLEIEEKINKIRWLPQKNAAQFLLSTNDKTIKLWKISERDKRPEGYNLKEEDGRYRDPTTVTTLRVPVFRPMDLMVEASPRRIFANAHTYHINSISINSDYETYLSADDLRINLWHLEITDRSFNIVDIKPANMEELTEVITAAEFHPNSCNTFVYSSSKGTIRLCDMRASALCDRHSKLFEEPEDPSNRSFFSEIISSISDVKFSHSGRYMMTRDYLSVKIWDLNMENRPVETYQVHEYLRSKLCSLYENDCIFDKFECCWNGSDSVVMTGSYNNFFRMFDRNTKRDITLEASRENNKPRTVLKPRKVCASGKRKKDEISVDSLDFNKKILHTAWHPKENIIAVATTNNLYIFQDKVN"}
{"substance": "Leucine-rich repeat serine/threonine-protein kinase 2 (Homo sapiens), Q5S007 R1441C", "values": [{"measurement": "effect of a mutation on the interaction", "value": "with no effect"}]}
